From patent publication US20090136500A1 (CISTHERA, published 2009)

Legend:
[1] = target: T1, rat PAI-1 (rat, UniProt P20961 24-402, n-terminal biotin label (in the P-ELISA)); test: P-ELISA: biotin-labeled PAI-1 on streptavidin/Neutravidin coated wells, HRP-conjugated secondary antibody, O.D. 450. Target taken from the title printed in the panel; the legend paragraph 67 names FIG. 12C as mouse
T1 sequence (looked up): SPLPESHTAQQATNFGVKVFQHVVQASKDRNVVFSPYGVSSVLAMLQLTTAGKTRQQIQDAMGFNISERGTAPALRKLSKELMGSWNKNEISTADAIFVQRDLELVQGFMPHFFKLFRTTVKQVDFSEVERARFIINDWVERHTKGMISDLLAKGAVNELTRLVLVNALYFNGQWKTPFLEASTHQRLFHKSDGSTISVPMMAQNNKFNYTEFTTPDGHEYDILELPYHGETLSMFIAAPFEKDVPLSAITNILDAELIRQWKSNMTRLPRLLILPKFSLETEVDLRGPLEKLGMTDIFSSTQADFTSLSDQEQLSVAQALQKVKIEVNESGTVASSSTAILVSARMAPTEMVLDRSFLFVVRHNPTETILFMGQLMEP
Protocol: All reagents are brought to room temperature (18-23° C.) and dilutions are made in Wash Buffer (1×TBS, 0.1% BSA, 0.05% Tween). Briefly, protocol steps are as follows: [0546] Add 100 μL of Neutravidin™ Pierce#31000 (0.5 μg/ml in TBS) to 96-well Immulon-4 plates. Incubate 1 hour at room temperature (RT). [0547] Wash wells 3 times with 200 μl Wash Buffer. [0548] Add 50 μL of biotinylated biomolecule (0.06 nM) Incubate 1 hour at RT. [0549] Wash plate 3 times in Wash Buffer. [0550] Add 100 μL of 1° Ab Incubate 30 min RT [0551] Wash plate 3 times in Wash Buffer. [0552] Add 50 μL of […] (1:10,000) Incubate 30 min RT [0553] Wash plate 4 times in Wash Buffer. [0554] Add 100 μl TMB Reagent (substrate). Incubate at room temperature. [0555] Add 100 μL of 2 M Sulfuric Acid to stop development of the substrate. [0556] Plates were read using a […] filter with a 615-620 nm filter as the reference.
Binding of CT140 to rat, mouse, rabbit and human PAI-1 was determined by P-ELISA (see FIG. 12). The relative affinity of CT140 is human=rabbit>mouse>rat (FIG. 12A, FIG. 12B, FIG. 12C and FIG. 12D, respectively).

[2] = target: T2, mouse PAI-1 (mouse, UniProt P22777 23-402, limits assumed, n-terminal biotin label (in the P-ELISA)); test: P-ELISA
T2 construct: also called murine PAI-1
T2 sequence (looked up): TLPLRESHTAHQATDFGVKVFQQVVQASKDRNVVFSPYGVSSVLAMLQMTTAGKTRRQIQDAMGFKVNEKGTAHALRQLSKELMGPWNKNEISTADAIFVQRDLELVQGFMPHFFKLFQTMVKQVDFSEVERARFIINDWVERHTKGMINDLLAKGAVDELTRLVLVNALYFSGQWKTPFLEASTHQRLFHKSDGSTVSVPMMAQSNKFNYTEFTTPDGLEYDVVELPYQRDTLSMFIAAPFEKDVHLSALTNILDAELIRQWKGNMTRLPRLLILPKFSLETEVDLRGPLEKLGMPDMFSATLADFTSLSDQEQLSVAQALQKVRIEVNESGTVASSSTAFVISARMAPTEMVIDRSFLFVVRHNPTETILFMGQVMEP

[3] = target: T3, PAI-1 (antigen of Example 11, species not stated); test: SPR-type biosensor, antibody captured on anti-human IgG surface at 5 densities, 25 C, global 1:1 fit
T3 construct: Its method text reads as if hP-1 and mP-1 were the antigens run over captured antibody, that is human and mouse PAI-1
T3 sequence (P05121 24-402): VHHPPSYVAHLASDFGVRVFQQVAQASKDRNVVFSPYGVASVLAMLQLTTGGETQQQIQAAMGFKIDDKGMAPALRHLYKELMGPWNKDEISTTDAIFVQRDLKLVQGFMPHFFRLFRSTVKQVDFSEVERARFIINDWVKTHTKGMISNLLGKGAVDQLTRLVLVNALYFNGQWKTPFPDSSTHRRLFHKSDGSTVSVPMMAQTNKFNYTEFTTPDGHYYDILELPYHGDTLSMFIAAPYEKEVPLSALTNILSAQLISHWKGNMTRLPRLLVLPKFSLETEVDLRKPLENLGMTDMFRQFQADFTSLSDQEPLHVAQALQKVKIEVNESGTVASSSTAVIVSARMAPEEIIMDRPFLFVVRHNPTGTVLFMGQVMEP
Protocol: This experiment was conducted to measure the binding constants for hP-1 (humanized mAb CT140) and mP-1 (mouse antibody 33B8).
hP-1 was captured onto an anti-human IgG surface (Cat-tag goat mAb) at 5 different surface densities. hP-1 and mP-1 were diluted to a starting concentration of 100 nM and tested in a 3-fold dilution series using PBS with 0.005% Tween-20 and 0.1 mg/ml BSA. Binding data were collected at 25° C. The association phase was monitored for 5 minutes and the dissociation phase was monitored for 2.5 hours. The response data for each antigen over the 5 different density mAb surfaces were globally fit to a simple 1:1 interaction model. A fit to the data was determined (data not shown) a binding constants were determined at 25° C.

B1: CT140 (humanized version of murine monoclonal antibody 33B8, IgG4 with the hinge of IgG1) (antibody, V domains shown)
VH: QVQLVQSGAEVKKPGASVKVSCKASGYTFTNYGMNWVRQAPGQGLEWMGWINTYTGEPTYTDDFKGRFTMTLDTSISTAYMELSRLRSDDTAVYYCAKDVSGFVFDYWGQGTLVTVSS
VL: DIVMTQSPDSLAVSLGERATINCKSSQSLLNIIKQKNCLAWYQQKPGQPPKLLIYWASTRESGVPDRFSGSGSGTDFTLTISSLQAEDVAVYYCQQYYSYPYTFGQGTKLEIKR
notes: also called hP-1; humanized mAb CT140
For B1, the binding result [1] was “binds”, the “fold greater affinity relative to the parent mouse anti-PAI-1” value [2] was over 10 fold and the Kd [3] was 0.015 nM. For the same binder, the koff [3] was 8e-06 s⁻¹ and the kon [3] was 530000 M⁻¹ s⁻¹.
